According to paper PMC12264150, “A chromatin-remodeling-independent role for ATRX in protecting centromeric cohesion” (The EMBO Journal, 2025):

T1: GST-Pds5B (1–300) (UniProt Q9NTI5 1-300)
T1 construct: Pds5B residues 1–300, in pGEX-4T1; also called GST-fused Pds5B (1–300) fragment; GST-Pds5B (1–300) WT; source: E. coli BL21 (DE3), purified (Glutathione Sepharose 4B); not shown: GST, N-terminal, kept
T1 sequence (looked up): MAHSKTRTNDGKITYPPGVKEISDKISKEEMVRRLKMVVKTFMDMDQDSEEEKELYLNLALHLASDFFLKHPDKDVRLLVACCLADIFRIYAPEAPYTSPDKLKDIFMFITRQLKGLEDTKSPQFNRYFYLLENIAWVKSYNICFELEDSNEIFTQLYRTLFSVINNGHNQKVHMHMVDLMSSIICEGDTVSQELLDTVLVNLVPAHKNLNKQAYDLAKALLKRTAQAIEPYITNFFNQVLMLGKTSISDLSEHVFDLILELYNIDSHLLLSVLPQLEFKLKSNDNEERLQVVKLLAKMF

T2: MBP-Pds5B (1–300) (UniProt Q9NTI5 1-300)
T2 construct: Pds5B residues 1–300, in pMAL-C2E; also called recombinant MBP-Pds5B (1–300); purified MBP-Pds5B; source: E. coli BL21 (DE3), purified (Amylose Resin); not shown: MBP, N-terminal, kept
T2 sequence (looked up): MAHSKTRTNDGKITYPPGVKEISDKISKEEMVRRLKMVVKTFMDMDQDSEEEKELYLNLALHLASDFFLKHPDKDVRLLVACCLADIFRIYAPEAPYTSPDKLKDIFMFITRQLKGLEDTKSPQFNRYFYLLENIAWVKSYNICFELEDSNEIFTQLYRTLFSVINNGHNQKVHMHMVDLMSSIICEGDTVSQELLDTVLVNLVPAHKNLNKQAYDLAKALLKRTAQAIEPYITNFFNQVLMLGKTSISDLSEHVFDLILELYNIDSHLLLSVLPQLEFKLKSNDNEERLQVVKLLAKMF


The binders below were run against T1, GST-Pds5B (1–300) (assay: pull-down; recombinant GFP-ATRX (1394–1443)-2xStrep (wild-type or mutants) pulled down with GST or GST-Pds5B (1–300); immunoblot for GFP and CBB). Conditions: both partners purified.

binding result	Binder
binds	SESEDEQRPRTRSAKKAELEEAQRSYKQKKKRRRIKVQEDSSSENKSNSE (domain or fragment, UniProt P46100 1394-1443, looked up, source: E. coli BL21 (DE3), purified (Strep-Tactin Superflow); not shown: GFP, N-terminal, kept; 2xStrep, C-terminal, kept) [GFP-ATRX (1394–1443)-2xStrep N1415A]
binds	SESEDEQRPRTRSAKKAELAENQRSYKQKKKRRRIKVQEDSSSENKSNSE (domain or fragment, UniProt P46100 1394-1443, looked up, source: E. coli BL21 (DE3), purified (Strep-Tactin Superflow); not shown: GFP, N-terminal, kept; 2xStrep, C-terminal, kept) [GFP-ATRX (1394–1443)-2xStrep E1413A]
binds	SESEDEQRPRTRSAKKAELEENARSYKQKKKRRRIKVQEDSSSENKSNSE (domain or fragment, UniProt P46100 1394-1443, looked up, source: E. coli BL21 (DE3), purified (Strep-Tactin Superflow); not shown: GFP, N-terminal, kept; 2xStrep, C-terminal, kept) [GFP-ATRX (1394–1443)-2xStrep Q1416A]
binds	SESEDEQRPRTRSAKKAELEENQRSYKAKKKRRRIKVQEDSSSENKSNSE (domain or fragment, UniProt P46100 1394-1443, looked up, source: E. coli BL21 (DE3), purified (Strep-Tactin Superflow); not shown: GFP, N-terminal, kept; 2xStrep, C-terminal, kept) [GFP-ATRX (1394–1443)-2xStrep Q1421A]

More lines, now with the values behind:

Binder	binding result
SESEDEQRPRTRSAKKAELEENQRSYKQKKKRRRIKVQEDSSSENKSNSE (domain or fragment, UniProt P46100 1394-1443, looked up, source: E. coli BL21 (DE3), purified (Strep-Tactin Superflow); not shown: GFP, N-terminal, kept; 2xStrep, C-terminal, kept) [GFP-ATRX (1394–1443)-2xStrep]	binds
SESEDEQRPRTRSAKKAELEANQRSYKQKKKRRRIKVQEDSSSENKSNSE (domain or fragment, UniProt P46100 1394-1443, looked up, source: E. coli BL21 (DE3), purified (Strep-Tactin Superflow); not shown: GFP, N-terminal, kept; 2xStrep, C-terminal, kept) [GFP-ATRX (1394–1443)-2xStrep E1414A]	binds
SESEDEQRPRTRSAKKAELEENQASYKQKKKRRRIKVQEDSSSENKSNSE (domain or fragment, UniProt P46100 1394-1443, looked up, source: E. coli BL21 (DE3), purified (Strep-Tactin Superflow); not shown: GFP, N-terminal, kept; 2xStrep, C-terminal, kept) [GFP-ATRX (1394–1443)-2xStrep R1417A]	binds
SESEDEQRPRTRSAKKAELEENQRAYKQKKKRRRIKVQEDSSSENKSNSE (domain or fragment, UniProt P46100 1394-1443, looked up, source: E. coli BL21 (DE3), purified (Strep-Tactin Superflow); not shown: GFP, N-terminal, kept; 2xStrep, C-terminal, kept) [GFP-ATRX (1394–1443)-2xStrep S1418A]	binds
SESEDEQRPRTRSAKKAELEENQRSYAQKKKRRRIKVQEDSSSENKSNSE (domain or fragment, UniProt P46100 1394-1443, looked up, source: E. coli BL21 (DE3), purified (Strep-Tactin Superflow); not shown: GFP, N-terminal, kept; 2xStrep, C-terminal, kept) [GFP-ATRX (1394–1443)-2xStrep K1420A]	binds

The binders below were run against T2, MBP-Pds5B (1–300) (assay: pull-down; competitive: purified MBP-Pds5B (1–300) mixed with GFP-2xStrep or increasing amounts of GFP-ATRX (1394–1443)-2xStrep (WT or Y1419A), pulled down with Wapl (1–28)-GST). Conditions: both partners purified.

binding result	Binder
binds	MTSRFGKTYSRKGGNGSSKFDEVFSNKR (domain or fragment, UniProt Q7Z5K2 1-28, looked up, Wapl residues 1–28, in pETGEX-CT; also called short Wapl fragment (residues 1–28) containing the YSR motif; Wapl (1–28)-GST WT; source: E. coli BL21 (DE3), purified (Glutathione Sepharose 4B); not shown: GST, C-terminal, kept) [Wapl (1–28)-GST]
binds	SESEDEQRPRTRSAKKAELEENQRSYKQKKKRRRIKVQEDSSSENKSNSE (domain or fragment, UniProt P46100 1394-1443, looked up, source: E. coli BL21 (DE3), purified (Strep-Tactin Superflow); not shown: GFP, N-terminal, kept; 2xStrep, C-terminal, kept) [GFP-ATRX (1394–1443)-2xStrep]
